Measured values from US20210230570.

B1: FIXa-Y155F/K247N/N249S/R318Y/R338E/T343R (protein)
chain 1: YNSGKLEEFVQGNLERECMEEKCSFEEAREVFENTERTTEFWKQYVDGDQCESNPCLNGGSCKDDINSYECWCPFGFEGKNCELDVTCNIKNGRCEQFCKNSADNKVVCSCTEGYRLAENQKSCEPAVPFPCGRVSVSQTSKLTR
chain 2: VVGGEDAKPGQFPWQVVLNGKVDAFCGGSIVNEKWIVTAAHCVETGVKITVVAGEHNIEETEHTEQNRSVIRIIPHHNYNAAINKYNHDIALLELDEPLVLNSYVTPICIADKEYTNIFLKFGSGYVSGWGRVFHKGYSALVLQYLRVPLVDRATCLESTKFRIYNNMFCAGFHEGGRDSCQGDSGGPHVTEVEGTSFLTGIISWGEECAMKGKYGIYTKVSRYVNWIKEKTKLT
B2: FIXa-K228N/R318Y/R338E/T343R/R403E/E410N (protein)
chain 1: YNSGKLEEFVQGNLERECMEEKCSFEEAREVFENTERTTEFWKQYVDGDQCESNPCLNGGSCKDDINSYECWCPFGFEGKNCELDVTCNIKNGRCEQFCKNSADNKVVCSCTEGYRLAENQKSCEPAVPFPCGRVSVSQTSKLTR
chain 2: VVGGEDAKPGQFPWQVVLNGKVDAFCGGSIVNEKWIVTAAHCVETGVNITVVAGEHNIEETEHTEQKRNVIRIIPHHNYNAAINKYNHDIALLELDEPLVLNSYVTPICIADKEYTNIFLKFGSGYVSGWGRVFHKGYSALVLQYLRVPLVDRATCLESTKFRIYNNMFCAGFHEGGRDSCQGDSGGPHVTEVEGTSFLTGIISWGEECAMKGKYGIYTKVSEYVNWIKNKTKLT
B3: FIXa-Y155F/R318Y/T343R/E410N (protein)
chain 1: YNSGKLEEFVQGNLERECMEEKCSFEEAREVFENTERTTEFWKQYVDGDQCESNPCLNGGSCKDDINSYECWCPFGFEGKNCELDVTCNIKNGRCEQFCKNSADNKVVCSCTEGYRLAENQKSCEPAVPFPCGRVSVSQTSKLTR
chain 2: VVGGEDAKPGQFPWQVVLNGKVDAFCGGSIVNEKWIVTAAHCVETGVKITVVAGEHNIEETEHTEQKRNVIRIIPHHNYNAAINKYNHDIALLELDEPLVLNSYVTPICIADKEYTNIFLKFGSGYVSGWGRVFHKGYSALVLQYLRVPLVDRATCLRSTKFRIYNNMFCAGFHEGGRDSCQGDSGGPHVTEVEGTSFLTGIISWGEECAMKGKYGIYTKVSRYVNWIKNKTKLT
B4: FIXa-K228N/K247N/N249S/R318Y/R338E/T343R/E410N (protein)
chain 1: YNSGKLEEFVQGNLERECMEEKCSFEEAREVFENTERTTEFWKQYVDGDQCESNPCLNGGSCKDDINSYECWCPFGFEGKNCELDVTCNIKNGRCEQFCKNSADNKVVCSCTEGYRLAENQKSCEPAVPFPCGRVSVSQTSKLTR
chain 2: VVGGEDAKPGQFPWQVVLNGKVDAFCGGSIVNEKWIVTAAHCVETGVNITVVAGEHNIEETEHTEQNRSVIRIIPHHNYNAAINKYNHDIALLELDEPLVLNSYVTPICIADKEYTNIFLKFGSGYVSGWGRVFHKGYSALVLQYLRVPLVDRATCLESTKFRIYNNMFCAGFHEGGRDSCQGDSGGPHVTEVEGTSFLTGIISWGEECAMKGKYGIYTKVSRYVNWIKNKTKLT
B5: FIXa-Y155F/K247N/N249S/R403E/E410N (protein)
chain 1: YNSGKLEEFVQGNLERECMEEKCSFEEAREVFENTERTTEFWKQYVDGDQCESNPCLNGGSCKDDINSYECWCPFGFEGKNCELDVTCNIKNGRCEQFCKNSADNKVVCSCTEGYRLAENQKSCEPAVPFPCGRVSVSQTSKLTR
chain 2: VVGGEDAKPGQFPWQVVLNGKVDAFCGGSIVNEKWIVTAAHCVETGVKITVVAGEHNIEETEHTEQNRSVIRIIPHHNYNAAINKYNHDIALLELDEPLVLNSYVTPICIADKEYTNIFLKFGSGYVSGWGRVFHKGRSALVLQYLRVPLVDRATCLRSTKFTIYNNMFCAGFHEGGRDSCQGDSGGPHVTEVEGTSFLTGIISWGEECAMKGKYGIYTKVSEYVNWIKNKTKLT
B6: FIXa-K247N/N249S/R318Y/R338E/T343R (protein)
chain 1: YNSGKLEEFVQGNLERECMEEKCSFEEAREVFENTERTTEFWKQYVDGDQCESNPCLNGGSCKDDINSYECWCPFGFEGKNCELDVTCNIKNGRCEQFCKNSADNKVVCSCTEGYRLAENQKSCEPAVPFPCGRVSVSQTSKLTR
chain 2: VVGGEDAKPGQFPWQVVLNGKVDAFCGGSIVNEKWIVTAAHCVETGVKITVVAGEHNIEETEHTEQNRSVIRIIPHHNYNAAINKYNHDIALLELDEPLVLNSYVTPICIADKEYTNIFLKFGSGYVSGWGRVFHKGYSALVLQYLRVPLVDRATCLESTKFRIYNNMFCAGFHEGGRDSCQGDSGGPHVTEVEGTSFLTGIISWGEECAMKGKYGIYTKVSRYVNWIKEKTKLT
B7: FIXa-Y155F/R338E/T343R/E410N (protein)
chain 1: YNSGKLEEFVQGNLERECMEEKCSFEEAREVFENTERTTEFWKQYVDGDQCESNPCLNGGSCKDDINSYECWCPFGFEGKNCELDVTCNIKNGRCEQFCKNSADNKVVCSCTEGYRLAENQKSCEPAVPFPCGRVSVSQTSKLTR
chain 2: VVGGEDAKPGQFPWQVVLNGKVDAFCGGSIVNEKWIVTAAHCVETGVKITVVAGEHNIEETEHTEQKRNVIRIIPHHNYNAAINKYNHDIALLELDEPLVLNSYVTPICIADKEYTNIFLKFGSGYVSGWGRVFHKGRSALVLQYLRVPLVDRATCLESTKFRIYNNMFCAGFHEGGRDSCQGDSGGPHVTEVEGTSFLTGIISWGEECAMKGKYGIYTKVSRYVNWIKNKTKLT
B8: FIXa-Y155F/K247N/N249S/T343R/E410N (protein)
chain 1: YNSGKLEEFVQGNLERECMEEKCSFEEAREVFENTERTTEFWKQYVDGDQCESNPCLNGGSCKDDINSYECWCPFGFEGKNCELDVTCNIKNGRCEQFCKNSADNKVVCSCTEGYRLAENQKSCEPAVPFPCGRVSVSQTSKLTR
chain 2: VVGGEDAKPGQFPWQVVLNGKVDAFCGGSIVNEKWIVTAAHCVETGVKITVVAGEHNIEETEHTEQNRSVIRIIPHHNYNAAINKYNHDIALLELDEPLVLNSYVTPICIADKEYTNIFLKFGSGYVSGWGRVFHKGRSALVLQYLRVPLVDRATCLRSTKFRIYNNMFCAGFHEGGRDSCQGDSGGPHVTEVEGTSFLTGIISWGEECAMKGKYGIYTKVSRYVNWIKNKTKLT
B9: FIXa-R318Y/T343R/E410N (protein)
chain 1: YNSGKLEEFVQGNLERECMEEKCSFEEAREVFENTERTTEFWKQYVDGDQCESNPCLNGGSCKDDINSYECWCPFGFEGKNCELDVTCNIKNGRCEQFCKNSADNKVVCSCTEGYRLAENQKSCEPAVPFPCGRVSVSQTSKLTR
chain 2: VVGGEDAKPGQFPWQVVLNGKVDAFCGGSIVNEKWIVTAAHCVETGVKITVVAGEHNIEETEHTEQKRNVIRIIPHHNYNAAINKYNHDIALLELDEPLVLNSYVTPICIADKEYTNIFLKFGSGYVSGWGRVFHKGYSALVLQYLRVPLVDRATCLRSTKFRIYNNMFCAGFHEGGRDSCQGDSGGPHVTEVEGTSFLTGIISWGEECAMKGKYGIYTKVSRYVNWIKNKTKLT
B10: FIXa-K228N/K247N/N249S/R318Y/R338E/T343R/R403E (protein)
chain 1: YNSGKLEEFVQGNLERECMEEKCSFEEAREVFENTERTTEFWKQYVDGDQCESNPCLNGGSCKDDINSYECWCPFGFEGKNCELDVTCNIKNGRCEQFCKNSADNKVVCSCTEGYRLAENQKSCEPAVPFPCGRVSVSQTSKLTR
chain 2: VVGGEDAKPGQFPWQVVLNGKVDAFCGGSIVNEKWIVTAAHCVETGVNITVVAGEHNIEETEHTEQNRSVIRIIPHHNYNAAINKYNHDIALLELDEPLVLNSYVTPICIADKEYTNIFLKFGSGYVSGWGRVFHKGYSALVLQYLRVPLVDRATCLESTKFRIYNNMFCAGFHEGGRDSCQGDSGGPHVTEVEGTSFLTGIISWGEECAMKGKYGIYTKVSEYVNWIKEKTKLT

Molecular target: Factor X (FX), P00742
Sequence (P00742 whole entry, looked up): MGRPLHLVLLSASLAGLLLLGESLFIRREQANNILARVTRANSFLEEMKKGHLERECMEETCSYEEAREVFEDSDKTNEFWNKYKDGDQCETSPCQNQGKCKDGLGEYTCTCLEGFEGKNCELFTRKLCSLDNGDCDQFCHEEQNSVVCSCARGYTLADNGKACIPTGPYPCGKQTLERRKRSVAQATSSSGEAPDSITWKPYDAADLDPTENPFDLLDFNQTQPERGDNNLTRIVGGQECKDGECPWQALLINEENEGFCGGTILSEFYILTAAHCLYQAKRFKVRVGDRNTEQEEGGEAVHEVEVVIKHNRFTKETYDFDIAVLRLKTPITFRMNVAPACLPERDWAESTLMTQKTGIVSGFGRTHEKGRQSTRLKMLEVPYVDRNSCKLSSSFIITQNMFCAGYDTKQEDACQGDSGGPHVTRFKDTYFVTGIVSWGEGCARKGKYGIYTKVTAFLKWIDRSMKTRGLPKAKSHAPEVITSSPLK

Protein | kcat | kcat/KM | kcat (s^-1) for activation of FX by FIXa in the Xase complex (FVIIIa, PC/PS vesicles, Ca2+), fluorogenic Spectrafluor FXa read-out
B1 | 8.5 s⁻¹ | 3.6e+08 M⁻¹ s⁻¹ | 
B2 |  | 2.7e+08 M⁻¹ s⁻¹ | 10.5 s⁻¹
B3 |  | 1.5e+08 M⁻¹ s⁻¹ | 5 s⁻¹
B4 |  | 1.3e+08 M⁻¹ s⁻¹ | 4.7 s⁻¹
B5 | 2.7 s⁻¹ | 2.4e+07 M⁻¹ s⁻¹ | 
B6 | 8 s⁻¹ | 3.9e+08 M⁻¹ s⁻¹ | 
B7 | 6 s⁻¹ | 3.5e+08 M⁻¹ s⁻¹ | 
B8 | 7.9 s⁻¹ | 2.8e+08 M⁻¹ s⁻¹ | 
B9 |  | 6.2e+07 M⁻¹ s⁻¹ | 3.2 s⁻¹
B10 |  | 2.9e+08 M⁻¹ s⁻¹ | 10.9 s⁻¹
